Positions of bridges follow the written chain, without caps; N, C: chain ends. No end group written: not given here. COCH2 = acetyl group that carries the bridge
What follows are substances tested against T1, Recombinant Human FGFR1 alpha (IIIc) Fc Chimera Protein (Homo sapiens, UniProt P11362) (assay: ELISA binding affinity of enzymatically synthesized peptide to FGFR). Details: ELISA luminescence signal at 10 nmol/L peptide, SEQ ID NO: 239 standardized to 1; enzyme synthesis product.
T1 construct: purchased R&D systems 658-FR-050
T1 sequence (P11362 with tags, fused parts or gaps limits assumed): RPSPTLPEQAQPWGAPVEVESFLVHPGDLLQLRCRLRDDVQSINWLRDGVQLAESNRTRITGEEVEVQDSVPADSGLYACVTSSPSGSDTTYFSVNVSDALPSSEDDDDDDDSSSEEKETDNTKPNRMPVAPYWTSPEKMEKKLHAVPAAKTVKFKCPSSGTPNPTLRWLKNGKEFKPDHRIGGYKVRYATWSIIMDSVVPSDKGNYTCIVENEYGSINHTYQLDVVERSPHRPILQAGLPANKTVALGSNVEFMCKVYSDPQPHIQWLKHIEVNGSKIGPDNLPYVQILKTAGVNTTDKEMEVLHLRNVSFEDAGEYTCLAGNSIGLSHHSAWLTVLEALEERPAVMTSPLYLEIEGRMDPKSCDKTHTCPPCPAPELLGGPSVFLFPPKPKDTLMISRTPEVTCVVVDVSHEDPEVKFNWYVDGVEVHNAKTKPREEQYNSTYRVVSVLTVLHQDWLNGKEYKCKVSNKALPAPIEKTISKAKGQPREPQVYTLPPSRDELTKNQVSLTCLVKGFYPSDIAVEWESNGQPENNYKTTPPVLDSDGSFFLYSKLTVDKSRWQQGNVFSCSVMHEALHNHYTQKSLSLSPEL
Procedure: The binding affinity of the peptide to FGFR was evaluated using an ELISA method.
The peptide used for the evaluation was enzymatically synthesized by the following method.
First, a fusion peptide (SEQ ID NO: 25) in which a translation enhancing sequence (SEQ ID NO: 22), a peptide, a Myc tag (SEQ ID NO: 23), and a HiBiT tag (SEQ ID NO: 24) were linked in this order was designed. Next, a template DNA sequence (SEQ ID NO: 26) was designed in which a T7 promoter sequence, a Shine-Dalgarno sequence, a sequence necessary for transcription and translation initiation, such as a start codon (ATG), was provided on the 5′ terminal side of the DNA sequence encoding the fused peptide, and a stop codon group was provided on the 3′ terminal side thereof. In a case where the triplet TAG codon is included in the template DNA sequence, the above-described codon is assigned to the codon of chloroacetylated lysine, and thus, the peptide encoded by the above-described DNA sequence is a cyclic peptide in which a thiol group of cysteine and a chloroacetyl group of chloroacetylated lysine spontaneously form a thioether bond.
The cell-free enzymatic synthesis of the polypeptide was performed in a translation solution containing a template DNA, PUREfrex 2.0 (GeneFrontier, PF201-0.25-5), and Aminoacyl tRNA (1). 1.75 μL ([…]) of the template DNA prepared to 50 ng/μL, 2.5 μL of PUREfrex 2.0 Solution I, 0.25 μL of Solution II, 0.5 μL of Solution III, and a dried product of Aminoacyl tRNA (1) (final concentration: 0.5 ng/μL) were mixed and mixture was subjected to a reaction at 37° C. for 1 hour.
The concentration of the enzymatically synthesized peptide was measured using the peptide diluted with Can Get Signal Immunoreaction Enhancer Solution I (TOYOBO, NKB-101), Nano-Glo HiBiT Lytic Detection System (Promega, N3040), and a chemical synthetic peptide for a calibration curve having a known concentration (SEQ ID NO: 33) according to the standard protocol of the Nano-Glo HiBiT Lytic Detection System.
The binding affinity of the enzymatically synthesized peptide to FGFR was measured by evaluating the amount of the peptide bound to FGFR by ELISA.
First, 5 ng of Recombinant Human FGFR1 alpha (IIIc) Fc Chimera Protein (R&D systems, 658-FR-050) was immobilized in each well of a 96-well plate, and blocked with Pierce Protein-Free (PBS) Blocking Buffer (Thermo, 37572), and a peptide diluted with Can Get Signal Immunoreaction Enhancer Solution I (TOYOBO, NKB-101) was then added and reacted at room temperature for 3 hours. After washing with 0.05% Tween 20-containing phosphate buffered saline (PBS), an anti-Myc antibody (Cell Signaling, 14038S) diluted with Can Get Signal Immunoreaction Enhancer Solution II (TOYOBO, NKB-101) was added and reacted at room temperature for 2 hours. After washing with 0.05% Tween 20-containing PBS, SuperSignal ELISA Femto Substrate (Thermo, 37075) was added, and the luminescence amount was measured. The dose-response relationship was calculated from using the difference between the luminescence amount in the well in which FGFR was immobilized and the luminescence amount in the well in which FGFR was not immobilized, and the concentration of the peptide at the time of reaction, and the binding affinity to FGFR was evaluated according to the following evaluation criteria. The evaluation result preferably satisfies the evaluation criteria A, B, or C.
In a case where a value of a luminescence signal emitted by the cyclic peptide set forth in SEQ ID NO: 239 at a reaction concentration of 10 nmol/L is standardized to 1, evaluation criteria of the luminescence signal value emitted by the peptide at a reaction concentration of 10 nmol/L is as follows. • A: 0.7 or more • B: 0.5 or more and less than 0.7 • C: 0.1 or more and less than 0.5 • D: less than 0.1.

Substance | Evaluation result of binding affinity to FGFR
34 (CRALLRGAPFHLAEC; disulfide 1-15 (inferred)) [compound 34] | D (less than 0.1)
35 (CDRTLLYYRLSC; disulfide 1-12 (inferred)) [compound 35] | D (less than 0.1)
36 (CRALLRGAPFHLAEK; not fully specified; Description of Artificial Sequence: Cyclic peptide) [compound 36] | D (less than 0.1)
37 (CDRTLLYYRLSK; not fully specified; Description of Artificial Sequence: Cyclic peptide) [compound 37] | D (less than 0.1)
38 (ICVYTFDAHAHSLHAALTKI; not fully specified; Description of Artificial Sequence: Cyclic peptide) [compound 38] | A (0.7 or more)
39 (ACVYTFDAHAHSLHAALTK(COCH2)I; thioether 2-19 (inferred)) [compound 39] | A (0.7 or more)
40 (GCVYTFDAHAHSLHAALTK(COCH2)I; thioether 2-19 (inferred)) [compound 40] | A (0.7 or more)
41 (PCVYTFDAHAHSLHAALTK(COCH2)I; thioether 2-19 (inferred)) [compound 41] | A (0.7 or more)
42 (LCVYTFDAHAHSLHAALTK(COCH2)I; thioether 2-19 (inferred)) [compound 42] | A (0.7 or more)
43 (VCVYTFDAHAHSLHAALTK(COCH2)I; thioether 2-19 (inferred)) [compound 43] | A (0.7 or more)
44 (FCVYTFDAHAHSLHAALTK(COCH2)I; thioether 2-19 (inferred)) [compound 44] | A (0.7 or more)
45 (YCVYTFDAHAHSLHAALTK(COCH2)I; thioether 2-19 (inferred)) [compound 45] | A (0.7 or more)
46 (WCVYTFDAHAHSLHAALTK(COCH2)I; thioether 2-19 (inferred)) [compound 46] | B (0.5 or more and less than 0.7)
47 (NCVYTFDAHAHSLHAALTK(COCH2)I; thioether 2-19 (inferred)) [compound 47] | A (0.7 or more)
48 (QCVYTFDAHAHSLHAALTK(COCH2)I; thioether 2-19 (inferred)) [compound 48] | A (0.7 or more)
49 (SCVYTFDAHAHSLHAALTK(COCH2)I; thioether 2-19 (inferred)) [compound 49] | A (0.7 or more)
50 (TCVYTFDAHAHSLHAALTK(COCH2)I; thioether 2-19 (inferred)) [compound 50] | A (0.7 or more)
51 (DCVYTFDAHAHSLHAALTK(COCH2)I; thioether 2-19 (inferred)) [compound 51] | A (0.7 or more)
52 (ECVYTFDAHAHSLHAALTK(COCH2)I; thioether 2-19 (inferred)) [compound 52] | A (0.7 or more)
53 (RCVYTFDAHAHSLHAALTK(COCH2)I; thioether 2-19 (inferred)) [compound 53] | A (0.7 or more)
54 (HCVYTFDAHAHSLHAALTK(COCH2)I; thioether 2-19 (inferred)) [compound 54] | A (0.7 or more)
55 (ICAYTFDAHAHSLHAALTK(COCH2)I; thioether 2-19 (inferred)) [compound 55] | C (0.1 or more and less than 0.5)
56 (ICLYTFDAHAHSLHAALTK(COCH2)I; thioether 2-19 (inferred)) [compound 56] | B (0.5 or more and less than 0.7)
57 (ICIYTFDAHAHSLHAALTK(COCH2)I; thioether 2-19 (inferred)) [compound 57] | A (0.7 or more)

Results, then the substance that gave them:

Evaluation result of binding affinity to FGFR | Substance
C (0.1 or more and less than 0.5) | 58 (ICFYTFDAHAHSLHAALTK(COCH2)I; thioether 2-19 (inferred)) [compound 58]
C (0.1 or more and less than 0.5) | 59 (ICYYTFDAHAHSLHAALTK(COCH2)I; thioether 2-19 (inferred)) [compound 59]
C (0.1 or more and less than 0.5) | 60 (ICTYTFDAHAHSLHAALTK(COCH2)I; thioether 2-19 (inferred)) [compound 60]
C (0.1 or more and less than 0.5) | 61 (ICVFTFDAHAHSLHAALTK(COCH2)I; thioether 2-19 (inferred)) [compound 61]
C (0.1 or more and less than 0.5) | 62 (ICVWTFDAHAHSLHAALTK(COCH2)I; thioether 2-19 (inferred)) [compound 62]
A (0.7 or more) | 63 (ICVHTFDAHAHSLHAALTK(COCH2)I; thioether 2-19 (inferred)) [compound 63]
B (0.5 or more and less than 0.7) | 64 (ICVYAFDAHAHSLHAALTK(COCH2)I; thioether 2-19 (inferred)) [compound 64]
C (0.1 or more and less than 0.5) | 65 (ICVYGFDAHAHSLHAALTK(COCH2)I; thioether 2-19 (inferred)) [compound 65]
C (0.1 or more and less than 0.5) | 66 (ICVYLFDAHAHSLHAALTK(COCH2)I; thioether 2-19 (inferred)) [compound 66]
C (0.1 or more and less than 0.5) | 67 (ICVYIFDAHAHSLHAALTK(COCH2)I; thioether 2-19 (inferred)) [compound 67]
C (0.1 or more and less than 0.5) | 68 (ICVYVFDAHAHSLHAALTK(COCH2)I; thioether 2-19 (inferred)) [compound 68]
B (0.5 or more and less than 0.7) | 69 (ICVYQFDAHAHSLHAALTK(COCH2)I; thioether 2-19 (inferred)) [compound 69]
A (0.7 or more) | 70 (ICVYSFDAHAHSLHAALTK(COCH2)I; thioether 2-19 (inferred)) [compound 70]
C (0.1 or more and less than 0.5) | 71 (ICVYEFDAHAHSLHAALTK(COCH2)I; thioether 2-19 (inferred)) [compound 71]
C (0.1 or more and less than 0.5) | 72 (ICVYRFDAHAHSLHAALTK(COCH2)I; thioether 2-19 (inferred)) [compound 72]
C (0.1 or more and less than 0.5) | 73 (ICVYHFDAHAHSLHAALTK(COCH2)I; thioether 2-19 (inferred)) [compound 73]
C (0.1 or more and less than 0.5) | 74 (ICVYTADAHAHSLHAALTK(COCH2)I; thioether 2-19 (inferred)) [compound 74]
C (0.1 or more and less than 0.5) | 75 (ICVYTGDAHAHSLHAALTK(COCH2)I; thioether 2-19 (inferred)) [compound 75]
B (0.5 or more and less than 0.7) | 76 (ICVYTYDAHAHSLHAALTK(COCH2)I; thioether 2-19 (inferred)) [compound 76]
